From patent US20240270874A1 (JIANGSU HENGRUI PHARMACEUTICALS, published 2024)

What was measured:
human FGFR1c on cells = human FGFR1c on cells (human, UniProt P11362 22-822); test: cell-based or functional assay
[1] = molecular target: T1, hKLB (R&D, Cat. # 5889-KB) (human, UniProt Q86Z14 53-997, limits assumed); test: BLI (Octet HTX) competition; KLB+antibody premix on SA sensor; competitor: immobilised Bio-FGF19
T1 construct: bought soluble protein; also called KLB protein; human KLB
T1 sequence (looked up): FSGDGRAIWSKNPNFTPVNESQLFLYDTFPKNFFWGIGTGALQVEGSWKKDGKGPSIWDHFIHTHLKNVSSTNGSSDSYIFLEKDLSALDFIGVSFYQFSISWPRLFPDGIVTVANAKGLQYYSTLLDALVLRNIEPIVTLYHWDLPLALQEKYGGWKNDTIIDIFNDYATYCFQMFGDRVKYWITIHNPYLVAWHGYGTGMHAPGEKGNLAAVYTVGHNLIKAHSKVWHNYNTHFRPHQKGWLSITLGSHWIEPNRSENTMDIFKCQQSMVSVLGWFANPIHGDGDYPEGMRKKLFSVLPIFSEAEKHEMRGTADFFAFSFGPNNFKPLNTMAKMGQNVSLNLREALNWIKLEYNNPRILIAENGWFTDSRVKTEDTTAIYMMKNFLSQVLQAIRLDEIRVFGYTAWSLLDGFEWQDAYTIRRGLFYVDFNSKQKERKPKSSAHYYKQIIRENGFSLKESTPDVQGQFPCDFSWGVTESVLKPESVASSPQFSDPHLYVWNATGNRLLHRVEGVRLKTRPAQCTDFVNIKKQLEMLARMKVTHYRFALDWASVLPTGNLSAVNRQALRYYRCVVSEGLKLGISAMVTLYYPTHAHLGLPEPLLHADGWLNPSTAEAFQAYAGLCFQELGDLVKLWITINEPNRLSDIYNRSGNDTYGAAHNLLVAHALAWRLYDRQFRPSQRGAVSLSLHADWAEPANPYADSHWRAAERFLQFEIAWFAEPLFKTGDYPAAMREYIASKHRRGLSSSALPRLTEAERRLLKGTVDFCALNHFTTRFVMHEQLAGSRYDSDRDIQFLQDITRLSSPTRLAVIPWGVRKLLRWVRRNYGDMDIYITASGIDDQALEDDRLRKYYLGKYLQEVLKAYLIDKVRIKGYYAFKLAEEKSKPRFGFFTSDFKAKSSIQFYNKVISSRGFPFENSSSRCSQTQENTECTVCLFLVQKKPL
Protocol: (§1) Bio-FGF21/Bio-FGF19 (obtained by subjecting FGF21 and FGF19 to Biotin labeling with a Biotin Labeling Kit-NH2 (available from DOJINDO Molecular technologies Inc., LK03), wherein FGF21 is set forth in SEQ ID NO: 76 and FGF19 is set forth in SEQ ID NO: 77) was immobilized to an SA sensor (incubation for 80 s) at a concentration of 2 μg/mL, and the sensor was then transferred to a sample well containing KLB (R&D, 5889-KB-1 mg) or containing KLB+antibody premix (pre-incubation for at least 15 min) for 180 s of binding. The reaction signals were detected in real time using the ForteBio OCTET HTX instrument to obtain a binding curve.

[2] = molecular target: T1, hKLB (R&D, Cat. # 5889-KB); test: BLI (Octet HTX) competition; KLB+antibody premix on SA sensor; competitor: immobilised Bio-FGF21
Protocol: as §1

[3] = molecular target: T1, hKLB (R&D, Cat. # 5889-KB); test: SPR (Biacore T200), antibody captured on Protein A chip, hKLB as analyte, 1:1 model
Source text: A Protein A biosensor chip (Cat. # 29127556, GE) was allowed to affinity capture an antibody, and then a certain concentration of hKLB (R&D, Cat. # 5889-KB) was allowed to flow through the surface of the chip. The reaction signals were detected in real time using a Biacore T200 instrument to obtain an association and dissociation curve. After dissociation was complete in each experiment cycle, the biosensor chip was washed with Glycine1.5 (Cat. # BR-1003-54, GE) for regeneration. The data were fitted using a 1:1 model to obtain antibody affinity data, and the specific experimental results are shown in Table 10 below.

human FGFR1c on cells, sequence (P11362 22-822): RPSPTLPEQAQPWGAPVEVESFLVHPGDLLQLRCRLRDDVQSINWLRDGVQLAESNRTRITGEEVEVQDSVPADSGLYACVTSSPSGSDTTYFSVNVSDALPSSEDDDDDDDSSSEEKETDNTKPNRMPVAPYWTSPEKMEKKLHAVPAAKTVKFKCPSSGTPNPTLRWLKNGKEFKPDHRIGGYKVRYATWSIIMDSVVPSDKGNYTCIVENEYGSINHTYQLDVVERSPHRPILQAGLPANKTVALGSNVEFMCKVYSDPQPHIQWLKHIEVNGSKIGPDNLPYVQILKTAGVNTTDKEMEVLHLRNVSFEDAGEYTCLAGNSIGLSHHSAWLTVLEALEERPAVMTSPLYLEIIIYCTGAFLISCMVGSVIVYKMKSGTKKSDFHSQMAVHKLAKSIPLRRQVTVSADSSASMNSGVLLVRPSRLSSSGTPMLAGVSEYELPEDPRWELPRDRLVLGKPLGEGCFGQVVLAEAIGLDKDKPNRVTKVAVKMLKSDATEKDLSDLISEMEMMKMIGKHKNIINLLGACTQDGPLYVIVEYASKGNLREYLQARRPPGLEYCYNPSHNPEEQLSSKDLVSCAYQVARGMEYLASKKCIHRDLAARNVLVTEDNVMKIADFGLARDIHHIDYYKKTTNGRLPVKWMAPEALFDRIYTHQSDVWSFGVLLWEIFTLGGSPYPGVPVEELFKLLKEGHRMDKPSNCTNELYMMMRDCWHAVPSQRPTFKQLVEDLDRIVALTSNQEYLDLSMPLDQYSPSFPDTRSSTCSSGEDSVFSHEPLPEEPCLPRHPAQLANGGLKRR

Binder	Activation fold, SRE-Luc2P reporter in HEK293-hFGFR1c cells (human FGFR1c on cells) [fold]	binding signal of KLB to Bio-FGF19, % of KLB alone [1] [%]	binding signal of KLB to Bio-FGF21, % of KLB alone [2] [%]	Kd [3] [pM]	koff [3] [s⁻¹]	kon [3] [M⁻¹ s⁻¹]
hAb99-13 (antibody, human IgG1, kappa, L234A L235A, V domains shown, human IgG1 (L234A, L235A) / kappa) VH: EVQLVQSGAEVKKPGASVKVSCKASGYTFTNYGINWVRQAPGQRLEWMGYIYIGNVDIEYNAKFKGRVTITSDTSASTAYMELSSLRSEDTAVYYCARGRGLGHFDVWGQGTTVTVSS VL: DIQMTQSPSSLSASVGDRVTITCRASKSISKFLAWFQQKPGKTNKLLIYSGSTLQSGVPSRFSGSGSGTDFTLTISSLQPEDFATYYCQQHNEYPWTFGGGTKVEIKR	0.77	99	108	2100	0.000626	298000
hAb-23 (antibody, human IgG1, kappa, L234A L235A, V domains shown, from a human natural phage library; human IgG1 (L234A, L235A) / kappa; also called fully human antibody hAb-23) VH: QVQLVQSGAEVKKPGSSVKVSCKASGGTFSSYAISWVRQAPGQGLEWMGGIIPIFGTANYAQKFQGRVTITADESTSTAYMELSSLRSEDTAVYYCARELVSYYYGMDVWGQGTMVTVSS VL: not shown	0.86	99	113	199	4.91e-05	247000
hAb18-8 (antibody, human IgG1, kappa, L234A L235A, V domains shown, human IgG1 (L234A, L235A) / kappa) VH: EVQLVQSGAEVKKPGASVKVSCKASGYTFTDYAMHWVRQAPGQRLEWMGVISTYSGTTNYNQNFKGRVTITVDKSASTAYMELSSLRSEDTAVYYCARSGPLDYWGQGTTVTVSS VL: ENVLTQSPDFQSVTPKEKVTITCRATSSVSSSYLHWYQQKPDQSPKLWIYSTSQLASGVPSRFSGSGSGTDYTLTINSLEAEDAATYYCQQYSGYPLTFGQGTKLEIKR	0.81	101	108	977	0.000103	106000
